According to patent US20180021429A1, “ANTICANCER AGENTS OR ANTIMETASTATIC AGENTS USING FSTL1 AND COMBINATION DRUG THEREOF” (PHARMA FOODS INTERNATIONAL CO., LTD., priority 2015, published 2018):

B1: #6-55: chicken-mouse chimeric anti-FSTL1 antibody clone; variable regions SEQ ID NO: 783 (light), 785 (heavy) (antibody, V domains shown)
VH: AVTLDESGGGLQTPGGALSLVCKGSGFTFTSVTMQWVRQAPGKGLEWVASVCSGSSTYYAPAVKGRATISRDNGQSTVRLQLSNLRPEDTGTYYCAKIAGRARWSCTSAAYNIDAWGHGTEVIVSS
VL: ASTQPSSVSAIPGETVKITCSGGGNNYGWYQQRSPGSAPVTVIYYNDNRPSNIPSRFSGSTSGSTSTLTITGVQADDEAIYYCGSWDSNTDSGIFGAGTTLTVL
modifications: mouse constant regions
B2: #5-3: chicken-mouse chimeric anti-FSTL1 antibody clone; variable regions SEQ ID NO: 767 (light), 769 (heavy) (antibody, V domains shown)
VH: AVTLDESGGGLQTPGGALSLVCKGSGFSFSSFNMFWVRQAPGKGLEWVAGIGKDGVPKYGAAVDGRATISKDNGQSTMRLQLNNLRAEDTGTYFCAKAAGGCSYDWCGIYAGDIDTWGHGTEVIVSS
VL: ASTQPSSVSANPGETVKITCSGGSGYYYGWYQQKSPGSVPVTVIYNNNNRPSDIPSRFSGSKSGSTGTLTITGVRAEDEAVYYCGGYDNSGTGIFGAGTTLTVL
modifications: mouse constant regions
B3: #5-8: chicken-mouse chimeric anti-FSTL1 antibody clone; variable regions SEQ ID NO: 771 (light), 773 (heavy) (antibody, V domains shown)
VH: AVTLDESGGGLQTPGGGLSLVCKGSGFTFSSFNMFWVRQAPGKGLEWVAGIGKDGVPKYGTAVDGRATISKDNGQSTMRLQLNNLRAEDTGTYFCAKAAGGCSYDWCGIYTGDIDTWGHGTEVIVSS
VL: ASTQPSSVSANPGEAVKITCSGGSGSYYGWYQQKSPGSAPVTVIYNNNQRPSDIPSRFSGSKSGSTATLTITGVQAEDEAVYFCGGYDSSTGHGGIFGAGTTLTVL
modifications: mouse constant regions
B4: #8-4: chicken-mouse chimeric anti-FSTL1 antibody clone; variable regions SEQ ID NO: 795 (light), 797 (heavy) (antibody, V domains shown)
VH: AVTLDESGGGLQTPGGGLSLVCKGSGFTLSSFNMFWVRQAPGKGLEWVAGVGKDGGTAYGAAVDGRATISRDSGQSTVRLQLNNLRAEDTGTYFCAKAAGGCSYSWCGAYVGDLDAWGHGTEVIVSS
VL: ASSQPSSVSANPGETVKITCSGGSGYYYGWYQQKSPGSAPVTVIYNNDNKPSDIPSRFSGSKSGSTGTLTITGVQVEDEAVYFCGGYDNSGTGIFGAGTTLTVL
modifications: mouse constant regions
B5: #5-2: chicken-mouse chimeric anti-FSTL1 antibody clone; variable regions SEQ ID NO: 763 (light), 765 (heavy) (antibody, V domains shown)
VH: AVTLDESGGGLQTPGGGLSLVCKGSGFTFSSFNMFWVRQAPGKGLEWVAGVGKDGGTGYGAAVDGRATISKDNGQSTLRLQLNNLRAEDTGTYYCAKAAGGCSYGWCGSYVGDIDAWGHGTEVIVSS
VL: ASTQPSSVSANPGEAVKITCSGGSGSYYGWYQQKSPGSAPVTVIYNNNQRPSDIPSRFSGSKSGSTATLTITGVQAEDEAVYFCGGYDSSTGHGGIFGAGTTLTVL
modifications: mouse constant regions
B6: #8-7: chicken-mouse chimeric anti-FSTL1 antibody clone; variable regions SEQ ID NO: 799 (light), 801 (heavy) (antibody, V domains shown)
VH: AVTLDESGGGLQTPGGGLSLVCKGSGFTFSSFNMFWVRQAPGKGLEWVAGIGKDGVPKYGAAVDGRATISKDNGQSTLRLQLNNLRAEDTGTYFCAKAAGGCSYDWCGIYAGDIDTWGHGTEVIVSS
VL: ASTQPSSVSANPGEAVKITCSGGSGSYYGWYQQKSPGSAPVTVIYNNNQRPSDIPSRFSGSKSGSTATLTITGVQAEDEAVYFCGGYDSSTGHGGIFGAGTTLTVL
modifications: mouse constant regions

Tested on: human pancreatic cancer cell line Panc1
Test: Inhibition of activation of tumor cells by FSTL1, Panc1 (Examples 5, 7, 9, 10, 11)
Type: cell-based
Protocol: It is known that tumor cells activated by stimulation with FSTL1 highly express molecule groups promoting bone metastasis and increase metastatic invasive capacity (Cancer Research 73: 6185, 2013). Thus, 2×10^7 cells/well of a human pancreatic cancer cell line Panc1 were suspended in 1 mL/well of D-MEM medium (GIBCO/Thermo Fisher Scientific Inc. Cat. No. C11885500BT) containing 10% fetal bovine serum, supplemented with 50 ng/mL (final concentration) of FSTL1 (R&D Systems, Inc.) and 10 μg/mL of the anti-FSTL1 antibody (#5-2, #5-8, #5-10, #5-43, #6-55, or #7-34) or its isotype mouse IgG (anti-DNP antibody) as a control antibody “Control”, and cultured under stimulation (6-well plate). 3 days thereafter, the number of cells was counted while the cells were stained with a PE-labeled anti-RANKL antibody (eBioscience Cat. No. 12-6619) and a PE-labeled anti-CCR2 antibody (R&D Systems, Inc. Cat. No. FAB151P) in order to examine the expression of markers indicating bone metastatic properties, and the contents of RANKL-positive cells and CCR2-positive cells were analyzed by flow cytometry using FACScan (Becton, Dickinson and Company) to calculate the numbers of cells per culture. […] Therefore, in Examples below, judgment was made with the number of cells as an index.
(§1) In the same way as in Example 5, a human pancreatic cancer cell line Panc1 was supplemented with 50 ng/mL (final concentration) of FSTL1 (R&D Systems, Inc.) and 10 μg/mL of the anti-FSTL1 antibody (the same clones as in Example 6) or a control antibody and cultured under stimulation. 3 days thereafter, the number of cells was counted while the cells were stained with a PE-labeled anti-RANKL antibody and a PE-labeled anti-CCR2 antibody, and the contents of RANKL-positive cells and CCR2-positive cells were analyzed by flow cytometry using FACScan (Becton, Dickinson and Company) to calculate the numbers of cells per culture (FIG. 99B).
as §1, with “20” for “50”, “FSTL1” for “FSTL1 (R&D Systems, Inc.)”, “(#5-2, #5-8, or #6-55)” for “(the same clones as in Example 6)”, “100B).” for “99B).”
as §1, with “FSTL1” for “FSTL1 (R&D Systems, Inc.)”, “(#5-2, #5-3, #6-55, #7-34, #8-1, #8-4, #8-7, or #8-8)” for “(the same clones as in Example 6)”, “culture.” for “culture (FIG. 99B).”
as §1, with “FSTL1” for “FSTL1 (R&D Systems, Inc.)”, “(#6-55)” for “(the same clones as in Example 6)”, “culture.” for “culture (FIG. 99B).”

[1] = Example 9: 20 ng/mL FSTL1, 10 μg/mL antibody, 3 days, FIG. 100B
[2] = Example 7: 50 ng/mL FSTL1, 10 μg/mL antibody, 3 days, FIG. 99B
[3] = Example 10: 50 ng/mL FSTL1, 10 μg/mL antibody, 3 days

Molecule | inhibitory activity against the expansion of RANKL-positive cells and CCR2-positive cells [1] | inhibitory activity against the expansion of RANKL-positive cells and CCR2-positive cells [2] | inhibitory activity against the expansion of RANKL-positive cells and CCR2-positive cells [3] | further results
B1 | exhibited inhibitory activity | – | – | inhibitory activity against the expansion of RANKL-positive cells and CCR2-positive cells (Example 11: 50 ng/mL FSTL1, at all tested doses (5, 10 and 20 μg/mL), no dose dependence, FIG. 100D): ~100%
B2 | – | higher inhibitory activity | – | –
B3 | exhibited inhibitory activity | higher inhibitory activity | – | –
B4 | – | – | high inhibitory activity | –
B5 | – | – | high inhibitory activity | –
B6 | – | – | high inhibitory activity | –
